{"source": "the nanobody polyreactivity screen of Harvey et al. (2022)", "data": [{"assay": "yeast display, Sf9 membrane polyspecificity reagent, FACS + sequencing; frameworks hold sequencing errors", "how_it_was_run": "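Using colony PCR, genes from sorted yeast display clones were amplified, then sequenced on MiSeq at 2 × 250 and filtered by CDR length. The clones had been stained with 10% biotinylated, detergent-solubilized Sf9 membrane reagent for 1 hour at 4 °C and sorted by FACS into low and high (top ~1%) gates on anti-HA and streptavidin fluorescence. Polyreactivity labels come from the gate of origin.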", "values": [{"sequence": "QVQLVESGGGLVQAGGSLRLSCAASGITFYSYAMGWYRQAPGKERELVAGISGGGGTSYADSVKGRFTISRDNAKNTVYLQMNSLKPEDTAVYYCNVYAYTYYYWAFYTEDYWGQGTQVTVSS", "polyreactivity (PSR sort gate)": "high polyreactivity"}, {"sequence": "QVQLVESGGGLVQAGGSLRLSCAASGITFYTYAMGWYRQAPGKERELVAAITNGGNTSYADSVKGRFTISRDNAKNTVYLQMNSLKPEDTAVYYCAAVVTLPIWGNWYYVRYGYWGQGTQVTVSS", "polyreactivity (PSR sort gate)": "low polyreactivity"}, {"sequence": "QVQLVESGGGLVQAGGSLRLSCAASGITFYTYAMGWYRQAPRKERELVAAISGSGGSTYYADSVKGRFTISRDNAKNTVYLQMNSLKPEDTAVYYCAARWPRGPFGNRHDYWGQGTQVTVSS", "polyreactivity (PSR sort gate)": "high polyreactivity"}, {"sequence": "QVQLVESGGGLVQAGGSLRLSCAASGITFYVHAMGWYRQAPGKERELVASITWSGGSTYYADSVKGRFTISRDNAKNTVYLQMNSLKPEDTAVYYCAHVLYRAYEYWGQGTQVTVSS", "polyreactivity (PSR sort gate)": "low polyreactivity"}, {"sequence": "QVQLVESGGGLVQAGGSLRLSCAASGITFYVYAMGWYRKAPGKERELVAAITSNGASTYYADSVKGRFTISRDNAKNTVYLQMNSLKPEDTAVYYCARRIKFPYHSYVGEYDYWGQGTQVTVSS", "polyreactivity (PSR sort gate)": "low polyreactivity"}, {"sequence": "QVQLVESGGGLVQAGGSLRLSCAASGITFYVYAMGWYRQAPGKEREFVAAISTRDGTTYADSLKGRFTISRDNAKNTVYLQMNSLKPEDTAVYYCAAAYYYDGQQGDFDYWGQGTQVTVSS", "polyreactivity (PSR sort gate)": "low polyreactivity"}, {"sequence": "QVQLVESGGGLVQAGGSLRLSCAASGITFYVYAMGWYRQAPGKERELVAAINYDSGSTYYADSVKGRFTISRDNAKNTVYLQMNSLKPEDTAVYYCATDGVNPFYAYDFWGQGTQVTVSS", "polyreactivity (PSR sort gate)": "low polyreactivity"}, {"sequence": "QVQLVESGGGLVQAGGSLRLSCAASGITFYVYAMGWYRQAPGKERELVAANSSGGGSTYYADSVKGRFTISRDNAKNTVYLQMNSLKPEDTAVYYCNKLFPGTYDGAHGYWGQGTQVTVSS", "polyreactivity (PSR sort gate)": "low polyreactivity"}, {"sequence": "QVQLVESGGGLVQAGGSLRLSCAASGITFYYYAMGWYRQAPGKERELVAAIDTDGSTYYADSVKGRFTISRDNAKNTVYLQMNSLKPEDTAVYYCAAEIEYYPYSGYIYDYWGQGTQVTVSS", "polyreactivity (PSR sort gate)": "high polyreactivity"}, {"sequence": "QVQLVESGGGLVQAGGSLRLSCAASGITFYYYAMGWYRQAPGKERELVAAISRSGITYYADSVKGRFTISRDNAKNTVYLQMNSLKPEDTAVYYCAAGRRFDQSMYYWGQGTQVTVSS", "polyreactivity (PSR sort gate)": "high polyreactivity"}, {"sequence": "QVQLVESGGGLVQAGGSLRLSCAASGITFYYYAMGWYRQAPGKERELVAAISVSGGSTYYADSVKGRFTISRDNAKNTVYLQMNSLKPEDTAVYYCAAADLLSYTYPEYDYWGQGTQVTVSS", "polyreactivity (PSR sort gate)": "low polyreactivity"}, {"sequence": "QVQLVESGGGLVQAGGSLRLSCAASGITFYYYAMGWYRQAPGKERELVAAISWSGGRTYYADSVKGRFTISRDNAKNTVYLQMNSLKPEDTAVYYCAAGYYLYHFVSLYGGDYWGQGTQVTVSS", "polyreactivity (PSR sort gate)": "high polyreactivity"}, {"sequence": "QVQLVESGGGLVQAGGSLRLSCAASGITFYYYAMGWYRQAPGKERELVADISSSGGSTYYADSVKGRFTISRDNAKNTVYLQMNSLKPEDTAVYYCNAVYRWYRPRVRFFRYDYWGQGTQVTVSS", "polyreactivity (PSR sort gate)": "high polyreactivity"}, {"sequence": "QVQLVESGGGLVQAGGSLRLSCAASGITIGRYAMGWYRQAPGKERELVAAISWSGGSTYYADSVKGRFTISRDNAKNTVYLQMNSLKPEDTAVYYCNKLRRYSEYNADDGDYWGQGTQVTVSS", "polyreactivity (PSR sort gate)": "high polyreactivity"}, {"sequence": "QVQLVESGGGLVQAGGSLRLSCAASGITIKAYAMGWYRQAPGKERELVAAISGSGGSTYYADSVEGRFTISRDNAKNTVYLQMNSLKPEDTAVYYCAARAVSLTGYRFGYWGQGTQVTVSS", "polyreactivity (PSR sort gate)": "high polyreactivity"}, {"sequence": "QVQLVESGGGLVQAGGSLRLSCAASGITILNYVMGWYRQAPGKERELVAGINFSGDGTYYADSVKGRFTISRDNAKNTVFLLMNSLKPEDTAVYYCAADWLSVSRIYYSWGQGTQVTVSS", "polyreactivity (PSR sort gate)": "low polyreactivity"}, {"sequence": "QVQLVESGGGLVQAGGSLRLSCAASGITILWNVMGWYRQAPGKERELVATITSIGGITNYADSVKGRFTISRDNAKNTVYLQMNSLKPEDTAVYYCARDDRDIRGVSGREGFLYDYWGQGTQVTVSS", "polyreactivity (PSR sort gate)": "low polyreactivity"}, {"sequence": "QVQLVESGGGLVQAGGSLRLSCAASGITIRFYAMGWYRQAPGKERELVAAITRGGSTTYADSVKGRFTISRDNAKNTVYLQMNSLKPEDTAVYYCNAQYQSGYYTSYPDRFDYWGQGTQVTVSS", "polyreactivity (PSR sort gate)": "low polyreactivity"}, {"sequence": "QVQLVESGGGLVQAGGSLRLSCAASGITIRGYAMGWYRQAPGKERELVAAINTRTSTYYADSVKGRFTISRDNAKNTVYLQMNSLKPEDTAVYYCNRDPVYYDFDYWGQGTQVTVSS", "polyreactivity (PSR sort gate)": "low polyreactivity"}, {"sequence": "QVQLVESGGGLVQAGGSLRLSCAASGITIRRYAMGWYRQAPGKERELVAAITTGGGGTYYADSVKGRFTISRDNAKNTVYLQMNSLKPEDTAVYYCAATYWRTYPSYYWGQGTQVTVSS", "polyreactivity (PSR sort gate)": "high polyreactivity"}, {"sequence": "QVQLVESGGGLVQAGGSLRLSCAASGITIVNYVMGWYRQAPGKERELVAAISIGGGTYYADSVKGRFTISRDNAKNTVYLQMNSLKPEDTAVYYCNARSEVSYWWGGYWGQGTQVTVSS", "polyreactivity (PSR sort gate)": "low polyreactivity"}, {"sequence": "QVQLVESGGGLVQAGGSLRLSCAASGITIVWYAMGWYRLAPGKEREFVASISWRGGTTYYADSVKGRFTISRDNAKNTVDLQMNSLKPEDTAVYYCAARTRWWYRYDYWGQGTQVTVSS", "polyreactivity (PSR sort gate)": "high polyreactivity"}, {"sequence": "QVQLVESGGGLVQAGGSLRLSCAASGITIYHNAMGWYRPAPGKERELVAAISWSGGSTYYADSVKGRFTISRDNANNTVYLQMNSLKPEDSAVYYCAAYQRVREGHDYEYWGQGTQVSVSS", "polyreactivity (PSR sort gate)": "high polyreactivity"}, {"sequence": "QVQLVESGGGLVQAGGSLRLSCAASGITIYKNAMGWYRQAPGKERELFAAITRGGSTYYADSVKGRFTISRDNAKNTVYLQMNCLKPEDTAVYYCNKVYHWQTPGFGYGYWGQGTQVTVST", "polyreactivity (PSR sort gate)": "high polyreactivity"}, {"sequence": "QVQLVESGGGLVQAGGSLRLSCAASGITIYVYAMGWYRQAPGTERELVAAITRSGGITSYADSVKGRFTISRDNAKNTVYLQMNSLKPEDTAVYYVAAESTNLHYHIQGVGYWGQGTQVTVSS", "polyreactivity (PSR sort gate)": "low polyreactivity"}, {"sequence": "QVQLVESGGGLVQAGGSLRLSCAASGITLDRNYMGWYRQAPGKERELVAAISRSGVRTYYADSVKGRFTISRDNAKNTVYLQMNSLKPEDTAVYYCNKGYARRYASGYDYWGQGTQVTVSS", "polyreactivity (PSR sort gate)": "high polyreactivity"}, {"sequence": "QVQLVESGGGLVQAGGSLRLSCAASGITLDVNALGWYRQAPGKERELVADITWSDDSTYYADSVKGRFTISRDNAKNTVYLQMNSLKPEDTAVYYCAADVSVSFHPRGYDYWGQGTQVTVSS", "polyreactivity (PSR sort gate)": "low polyreactivity"}, {"sequence": "QVQLVESGGGLVQAGGSLRLSCAASGITLGRYAMGWYRQAPGKERELVAAISRSGGSTYYADSVKGRFTISRANAKTTVYLQMNSLKPEDTAVYYCNRRVYPTSDYDYWGQGTQVTVSS", "polyreactivity (PSR sort gate)": "high polyreactivity"}, {"sequence": "QVQLVESGGGLVQAGGSLRLSCAASGITLKLYVMGWYRQAPGKERELVAAISRRGGSTYYADSVKGRFTISRDNAKNTVYLQMNSLKPEDTAVYYCAKDGTQYERQDPAYGYWGQGTQVTVSS", "polyreactivity (PSR sort gate)": "high polyreactivity"}, {"sequence": "QVQLVESGGGLVQAGGSLRLSCAASGITLRLYAMGWYRQAPGKERELVAAISKRGGSTYYADSVKWRFTISRDNAKNTVYLQMNSQKPEDTAVYYCAADSGWEHRYDYWGQGTQVTVSS", "polyreactivity (PSR sort gate)": "high polyreactivity"}, {"sequence": "QVQLVESGGGLVQAGGSLRLSCAASGITLTVYTMGWYRQAPGKERKLVAAITYGGTSTYYADSVKGRFTISRDNAKNTVYLQMNSLKPEDTAVYYCAARARIYNYWGQGTQVTVSS", "polyreactivity (PSR sort gate)": "high polyreactivity"}]}]}
